# Experiments:
# [1] = biological target: SARS-CoV-2 nonstructural protein 13 (CoV-2 Nsp13) (SARS-CoV-2, UniProt P0DTD1 5325-5925); assay: fluorescence anisotropy; Fluorescence anisotropy, 50 mM Tris-HCl pH 7.0 with 300 mM NaCl ([…]) or 20 mM NaCl ([…]; temperature not stated; conditions: protein: recombinant; tags: 6xHis-SUMO, removed with SUMO protease; label: 3'-FAM (fluorescein); single strand, 43 nt
# [2] = biological target: SARS-CoV-2 nucleocapsid protein (CoV-2 N) (SARS-CoV-2 (2019-nCoV), UniProt P0DTC9 1-419); assay: fluorescence anisotropy; 300 mM NaCl; 5 nM DNA; Kd was fitted but its value is only in Figure 7A; Fluorescence anisotropy, 50 mM Tris-HCl pH 7.0 with 300 mM NaCl (N) or 20 mM NaCl (Nsp13); 5 min equilibration, second reading after 10 min; temperature not stated; conditions: protein: recombinant; chain copies: 2; label: 3'-FAM (fluorescein); single strand, 43 nt
binder,measurement,setting,value
CTGTAGGAATGTGAAATAAAAACGATGTTTTATTTACATTGTA (ssDNA) [S43],binding result,[1],binds
same,binding result,[2],binds

# From publication PMC9354549, “SARS-CoV-2 Nucleocapsid Protein Has DNA-Melting and Strand-Annealing Activities With Different Properties From SARS-CoV-2 Nsp13”
